Source: paper PMC3299322

Assays:
[1] = biological target: Tissue factor (residues 1–209), soluble, immobilised on CNBr-activated sepharose-4B; assay: radioligand binding; as a1 but in human serum, 0 hour (no incubation in serum before the sepharose was added); binding 1 h at room temperature; median of 3
[2] = biological target: Tissue factor (residues 1–209), soluble, immobilised on CNBr-activated sepharose-4B; assay: radioligand binding; as a1 but after 1 hour of incubation of 111In-DTPA-rFVIIa in 270 uL human serum at room temperature before the sepharose was added; binding 1 h at room temperature; median of 3
[3] = biological target: Tissue factor (residues 1–209), soluble, immobilised on CNBr-activated sepharose-4B; assay: radioligand binding; 111In-DTPA-rFVIIa incubated 1 h at room temperature with TF (1–209)-sepharose (50% suspension) in assay buffer (10 mM glycyl-glycine, 150 mM NaCl, 10 mM CaCl2, 0.1% BSA, pH 7.5); beads and filtrate separated in Spin-X filter tubes and counted; median of 3 labellings

Substance: 111In-DTPA-rFVIIa (111Indium-labelled, DTPA-conjugated recombinant activated coagulation factor VII) (enzyme)
- binding efficiency (%) [1]: 39%
- binding efficiency (%) [2]: 36%
- binding efficiency (%) [3]: 48%
